A short description of the data set: soluble on expression in E. coli; label from the status in PepcDB or PDB records.
For “MAPQSNNSTTFVSKTQHYLKVKKPLLERQRRARMNKCLDTLKTLVAEFQGDDAILRMDKAEMLEAALVFMRKQVVKQQAPVSPLPMDSFKNGYMNAVSEISRVMACTPAMSVDVGKTVMTHLGVEFQRMLQADQVQTSVTTSTPRPLSPASSGYHSDNEDSQSAASPKPVEETMWRPWLEHHHHHH”, the “soluble on expression in E. coli” value is listed as “not soluble”. Then “MAPSSRWDAMGPKNSYRSVHGRIVPELLESSVARVRPLQYVQRQPSQASARSGANPTHRPSAEVRPVIRTGEMTHSSVIPPLAPGVRRVSLGYESSPSGSLPPLFNQESPWRRQDSYSPQNPAVSHKASLNSTILQGPADAGVVGGQSWNRAWEPARGAASWDTWRNKAVVPPRRSGEPMVSMQAAEEIRILAVITIQAGVRGYLARRRIRLWHRGAMVIQATWRGYRVRRNLAHLCRATTTIQSAWRGYSTRRDQARHWQMLHPVTWVELGSRAGVMSDRSWFQDGRARTVSDHRCFQSCQAHACSVCHSLSSRIGSPPSVVMLVGSSPRTCHTCGRTQPTRVVQGMGQGTEGPGAVSWASAYQLAALSPRQPHRQDKAATAIQSAWRGFKIRQQMRQQQMAAKIVQATWRGHHTRSCLKNTEALLGPADPSASSRHMHWPGI”, with “not soluble”; and “MAPTNLTKKPSQYKQSSRKGKKAWRKNIDLSDVEQYMEKKIDHEITHGTSDITSLQNDALFHVDVEGDEILKNKLIKRKQIKKVLKSKEILDAVKTNSKIAALNHHKNSSGNPNKIQGVSKHELKKLMALAGRVHGESKIKNRVAKDGLVKTTAGDLWGEESNSKKQKVKLPSGIKLDVEKKDQIPEELLKKSTTSWSTASVRPSTLDIEPIAVKEFTEIPHAGKSYNPNNKAWSELINKEYKEEKAREDERIALEKYKERIRHLMETLDDNEEEESSSNEEEEEEEEENENENESTQCSGSDKEIKLSINKPVKNKKKTKYQRNKAKRHEEKVKLQQELKELRQRVKDLEEVINSEETEILSAIESDSNKVKKSKKNKKHKLGTKYSVIDERLEIKFSDELSDSLRKLKPEGNLLYDTVRKLQSSGKVETRVPVRKGRKYKQKITEKWTHKDFK”, with “not soluble”; and “MAPTPKFGPKKIQNVSAVSCSVKKYQASTSSPVPILNVQERVELRKLEQMLPVSPKNCDPADVVLRAASYIDQLVATVQARVKNGTLPMGALSSLPPQYSKPIKSSRRTVSSKKSRRSMEKKR”, with “not soluble”. Regarding “MAPTRAVIPDDFELPVDAFDIPICYDGDLSGVVIPEGLVRDRVRRLAKDIHAEIGNKPIALLCVLKGSYKFFTALVEELTNARSSCPEPMTVDFIRVKSYEDQMSTGQIQIMGLSNLDELKGKSVLVVDDISDTGRTLAKLLSTLHETGVEKTWTALLLSKRVKRVVDVPEDFVAFEIPDKFIVGYGLDYNQKFRDLGHICVMSPAGIEKYKSE”, the “soluble on expression in E. coli” value was “not soluble”. “MAPVLENRRARHDYEILETYEAGIALKGTEVKSLRAGKVDFTGSFARFEDGELYLENLYIAPYEKGSYANVDPRRKRKLLLHKHELRRLLGKVEQKGLTLVPLKIYFNERGYAKVLLGLARGKKAYEKRREDKKEAVRRALEEL”: the “soluble on expression in E. coli” value is “soluble”. On to “MAPWIGGKRNLARRICAILDRSPCLTYAEPFVGMAGIFLRRSSRPRAEVINDRGRDVANLFRILQRHYPQFLDTLRFQLTTRAEFERLGATDPDTLTDLERAARFLYLQRTAFGGKVSGRNFGVSSHRPGRFNLTTLEPMLEDLHSRLAGVIVECLDWADFLARYDRPETLFYLDPPYWGSETDYGRGLFQREDFGLMAERLAKLQGRFLLSINDVPQIRAIFGRFRITEVTTTYSISGSAKGNGTARPELLVSNWDIGEEG”, for which the “soluble on expression in E. coli” value is recorded as “not soluble”. Take “MAQHVKKPEWLKIRLGGNEKFTETKSIVEGHCLHTICTSGKCPNMGECWSRGTATFMIGGDICTRACRFCNTLTGRPKPLNEAEPTHVALSIKLMGLNHAVVTSVDRDDLPDYGAAHWVKTIQEIRRINSGVTLEVLIPDFKGRMDLVDMIIEASPDVISHNLETVRRLTPSVRSVATYDTSLAVLRHIAQSGKMPAKTGMMLGLGETEEEILELMDDALAAGVSVITIGQYLQPSRKNLPVVEYITPEQFEHLRLVGIEKGFRTIESAPLVRSSYHAERHL”: the “soluble on expression in E. coli” value is given as “not soluble”. Regarding “MAQKPLRLLACGDVEGKFDILFNRVQAIQKKSGNFDLLLCVGNFFGSTQDAEWEEYKTGIKKVPIQTYVLGANNQETVKYFQDADGCELAENITYLGRKGIFTGSSGLQIVYLSGTESLNEPVPGYSFSPKDVSSLRMMLCTTSQFKGVDILLTSPWPKCVGNFGNSSGEVDTKKCGSALVSSLATGLKPRYHFAALEKTYYERLPYRNHIILQENAQHATRFIALANVGNPEKKKYLYAFSIVPMKLMDAAELVKQPPDVTENPYRKSGQEASIGKQILAPVEESACQFFFDLNEKQGRKRSSTGRDSKSSPHPKQPRKPPQPPGPCWFCLASPEVEKHLVVNIGTHCYLALAKGGLSDDHVLILPIGHYQSVVELSAEVVEEVEKYKATLRRFFKSRGKWCVVFERNYKSHHLQLQVIPVPISCSTTDDIKDAFITQAQEQQIELLEIPEHSDIKQIAQPGAAYFYVELDTGEKLFHRIKKNFPLQFGREVLASEAILNVPDKSDWRQCQISKEDEETLARRFRKDFEPYDFTLDD”, the “soluble on expression in E. coli” value was “soluble”. Take “MAQMTMIQAITDALRVEMKNDPNVLVFGEDVGVNGGVFRATEGLQAEFGEDRVMDTPLAESGIGGLAVGLALEGFRPVPEIQFFGFVYEVMDSISGQLARMRYRSGGRWTAPVTVRSPFGGGVHTPELHADSLEGLVAQQPGLKVVIPSTPYDAKGLLISAIRDNDPVIYLEHMKLYRSFRQDVPEGEYTIDLGKADIKREGTDVSVIAYGAMVHAALKAAEELEKEGISLEVVDLRTVQPLDIETIIASVEKTGRVVVVQEAQKQAGIAANVVAEINDRAILNLEAPVVRVAAADTVFPFSQAESVWLPNHKDIVEAVNKVMNF”: the “soluble on expression in E. coli” value is given as “not soluble”. For the sequence “MAQVSTTAGGAVGVNRSQSMLLSSQEVEQMSAKSYAGELQKARAAGRLNTDPALTARVRRVSQRLIAQTPSFRPDARNWRWEVNVLTTDDMNAYAMAGGKIMVYTGLVKQLKLSDAELAAVIGHEISHALREHTRENMSQAYAQQMGLGLVGALVGLNDSQLKLASLVGDVTLSKPHSRTMESEADIMGLELMARAGYDPNAAVNVWQKMQAAGGGGGMEFLSTHPSGPTRIRDLQAHIPQVWPLYQAAPKKGLEHHHHHH”, the “soluble on expression in E. coli” value is “not soluble”. Take “MARINRISITLCALLFTTLPLTPMAHASKQARESSATTHITKKADKKKSTATTKKTQKTAKKAASKSTTKSKTASSVKKSSITASKNAKTRSKHTVNKTASASLTEKCTKRKGYKSHCVKVKNAASGTLADAHKAKVQKATKVAMNKLMQQIGKPYRWGGSSPRTGFDCSGLVYYAYKDLVKIRIPRTANEMYHLRDAAPIERSELKNGDLVFFRTQGRGTADHVGVYVGNGKFIQSPRTGQEIQITSLSEDYWQRHYVGARRVMTPKTLR”: the “soluble on expression in E. coli” value is listed as “soluble”. Then “MARKGTTPWHESREMHTQDDADSSLKEQEKTTNKKEQTTAPPEKKLPTIPGKLPKRSVEPPEESRDQKPAGNKPNLKKSPSNPRIPPGGSHPRKKPKVPNRDPSGKHVNSDKKKPSAEAHDKESLSSPPQTDAGKETTKESASTYGASWKSSKPTLKADLKAMEDYITKMPNFHGYICREDAAQILKHPGDWLVRLSVPPSNDQDKKNKAQNLAKSVERTKGHKSTMQKVFVISVLCKGKALSPAKSNNRNLVIKTNNGKFSIDSVHWLVKLKDLFSHYQGTSAVHKNGEFQLLNPISLSKWEFQHEDTELLAKKLGEGAFGEVRVGRLTTKDPKKKLVEVAVKMLKSSADSVTRDQVEELLHETRIMRKLDHPNVLRSYGVAVLREPLYLMIELCSNGALREYLKENHKTITLADKINFVLGSARGVAYLHSQRILHRDLAVRNILLTEDKTPKVSDFGLAELTDRYEMKEHCKIPVRYLAPETLELFIFTPKTDVFSFGCVIWEIYENGQQPHDGKNAQTIRAQVKKREFLKLSSSAPEALRRLVAEKVFVADPENRCSMTSIVQCVETAEKTVK”, with “soluble”; and “MARKVIDVRIVNAATAEQESFIKELSMELIHDVFPLYFSELDIQRLKKKGVLSLNNHYYQGTLKEAFQIMACLQMIHIILTKPSPHSDLSDQAIFEKNSKMLNDFGIYFPFAFSDFQKKTNKAFFGQRRLILEHHHHHH”, with “not soluble”. For the sequence “MARSQLSAAGEQHVIQLNQQGGKNLFCFPPISGFGIYFKDLALQLNHKAAVYGFHFIEEDSRIEQYVSRITEIQPEGPYVLLGYSAGGNLAFEVVQAMEQKGLEVSDFIIVDAYKKDQSITADTENDDSAAYLPEAVRETVMQKKRCYQEYWAQLINEGRIKSNIHFIEAGIQTETSGAMVLQKWQDAAEEGYAEYTGYGAHKDMLEGEFAEKNANIILNILDKINSDQKVLPNKHGSHHHHHH”, the “soluble on expression in E. coli” value is given as “soluble”. “MARTAVPDNQPEITGFRIVLNNFEGPFDLLLQLISAKKLDVTDVALHKVTDDFVAYTRALGEFAELDEVTEFLVVAATLLDLKAARLLPRGEVDDLSDLELLESRDLLFARLLQYKAYKQVADQFARWQLAAQRRYPRAVGMEEQFSSLLPPVKISHTPKSFAELAASVFRPKPPDTVGTSHVHGVEVSVPEQAGKVLDLLVECGEGVWMDFPDLITGCRVSLEVVGRFLALLELYKARAVSLEQEESLGALRVSWTGIHVDPAIVAASNWA”: the “soluble on expression in E. coli” value is “not soluble”. With “MARTRSADYENIRDTIIERAAAMFARQGYSETSIGDIARACECSKSRLYHYFDSKEAVLRDMLTTHVDSLLERCRQVLYGSNEPKTRFLQIVKLFLEIYATSRDRHVVMLTCLDALPEDQRKALIAKQRELIAYVRDALLQLRPDMAANRTLAHVDTMLFFGMINWTYTWYKADGSVSPDALAERTVQLFLDGYLNLLSA”, the “soluble on expression in E. coli” value was “soluble”.

Consider “MASCHEPSAFKSLCAHPSTLTATFDVSPYSSAFHLPIHPALLSNTHLLHLNTYNPTTYESTERLFEQNNNNSEKAESCSSRDSSHDSSSPTSTGGSSRDNVIVRNELKRKKDQVKDVAYWERRRKNNDAAKRSRDQRRMKEDEMAHRATSLERENMLLRVELDQLRAETDKLRALILTTPTTSISIPIPLQSLPLLTAQTAPASSVITTSQMYAPLPLKIPKTPSPSLLRSTVLVSNSSKT”, for which the “soluble on expression in E. coli” value is “not soluble”. “MASDDEEDFTQLQINQNRKHKKAGGWQQIGLDHSVYKAIEKKGFNQPTPIQRKTIPCIMDGKDVVAMSRTGSGKTAAFVIPMLQKLKRRDTTGIRALMVSPTRELALQTFKVVKELGRFTGLRCACLVGGDQIEEQFSTIHENPDILLATPGRLLHVIVEMDLRLSYVQYVVFDEADRLFEMGFQDQLTETLKRIPESRQTLLFSATLPKMLVDFAKAGLTDPMLVRLDVDEKVSDKLSMVFCMCRPDEKLFALLHLCRNFCFKKLLETSLKKCKISKKKVPLLKKVRMDRENKQTVVFCATMKHVEYVVGILHRAGIDCSFVYSQLDATARKMNIQKFHEKQNNILVVTDVAARGVDIPLLDTVINLHFPPKAKLFVHRVGRVARAGRSGTAISLIANDELPYLTDLFMFLGKPINFASDKSEYKEDETLIGRVPDSIVSLETEFFHSIHDNNEDMQDLRQKATNAMMKYTRTRPPPSAESARRVKQDIRTDSVECAPHPFLKADGDKQSNDILNKISQYKSRNTIFEMNKSQKSQALAVMQAKRKAHEPRISTVTEEKRKQKEEKEQQQKSTDIAVEIAEKTVENAGEDELAEVFGTVIGSTKHTEKSEEKGGKKRKIGTGKRIDRAEQMKFEREKHYVPYMSSDHVAERHLALDTVDFARQAEGASVDIIMDDDRGMYQQKHGQRWDRRLKKYVGLSGGNEPANKKIRTEDGTWLPASYKTGKYEDWKQKQKIGFKKSDGGGDDGDNEGSGGMDRKRKWKMEKPKGGPKHSELKNKEQILKGRRKQEQLENYMEHRRQSNLKKKAEHLGRGGAGGARGGARGGARGGARGGSSRGARGGARGGGKFGNRR”: the “soluble on expression in E. coli” value is recorded as “not soluble”.
